{"source": "patent US20050152926A1", "key": {"[1]": {"target": "HLA A2 on RMA-S/A2 cells (human)", "assay": "BB7.2 staining of RMA-S/A2 cells without peptide (peptide-free control); FIG 3(i)"}, "[2]": {"target": "HLA A2 on RMA-S/A2 cells (human)", "assay": "BB7.2 staining of RMA-S/A2 cells without peptide (peptide-free control); FIG 2(i)"}, "[3]": {"target": "HLA A2 on RMA-S/A2 cells (human)", "assay": "BB7.2 staining of RMA-S/A2 cells without peptide (peptide-free control); FIG 1(i)"}}}
{"substance": "anti-A2 specific BB7.2 monoclonal antibody", "values": [{"measurement": "Mean 2", "setting": "[1]", "value": 282}, {"measurement": "Δ Mean", "setting": "[1]", "value": 151}, {"measurement": "Mean 2", "setting": "[2]", "value": 311}, {"measurement": "Δ Mean", "setting": "[2]", "value": 154}, {"measurement": "Mean 2", "setting": "[3]", "value": 380}, {"measurement": "Δ Mean", "setting": "[3]", "value": 193}]}
